Test system: Escherichia coli TOP10
Experiment: shrunken log2 fold change of peptide-encoding DNA abundance (4.5 h post-induction vs induction); higher = less antimicrobial activity (less host growth inhibition)
Conditions: time post-induction: 4.5 h; library: site-saturation at positions 5, 18, 19, 20
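Further: peptides expressed intracellularly from a pBAD plasmid library in pooled LB shake-flask culture, induced with 0.3% L-arabinose, DNA abundance read by NGS, three biological replicates, DESeq2 with apeglm shrinkage.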

Row | Sequence | shrunken log2 fold change
1 | RRIRVRPPRLPRPRPRPHFRPRP | -0.0776
2 | RRIRWRPPRLPRPRPRPWQQPRP | -0.01
3 | RRIRWRPPRLPRPRPRPLWEPRP | 0.0357
4 | RRIRVRPPRLPRPRPRPQATPRP | 0.271
5 | RRIRTRPPRLPRPRPRPPCNPRP | -0.0091
6 | RRIRIRPPRLPRPRPRPHLEPRP | -0.384
7 | RRIRRRPPRLPRPRPRPNWRPRP | 0.415
8 | RRIRYRPPRLPRPRPRPPCAPRP | 2.51
9 | RRIRGRPPRLPRPRPRPESQPRP | 1.57
10 | RRIRIRPPRLPRPRPRPYWKPRP | -0.0289
11 | RRIRGRPPRLPRPRPRPGVFPRP | 0.465
12 | RRIRYRPPRLPRPRPRPENLPRP | 0.0949
13 | RRIRRRPPRLPRPRPRPHWQPRP | 0.28
14 | RRIRYRPPRLPRPRPRPEYMPRP | -0.271
15 | RRIRPRPPRLPRPRPRPNTLPRP | -0.468
16 | RRIRHRPPRLPRPRPRPGDAPRP | 0.0297
17 | RRIRQRPPRLPRPRPRPSPGPRP | 0.194
18 | RRIRFRPPRLPRPRPRPFHWPRP | -0.336
19 | RRIRCRPPRLPRPRPRPLPEPRP | 0.397
20 | RRIRRRPPRLPRPRPRPIKVPRP | -0.186
21 | RRIRTRPPRLPRPRPRPVWCPRP | -0.113
22 | RRIRDRPPRLPRPRPRPFHKPRP | -0.0864

Row | Sequence | shrunken log2 fold change
23 | RRIRHRPPRLPRPRPRPSNKPRP | -0.802
24 | RRIRFRPPRLPRPRPRPEVTPRP | -0.0331
25 | RRIRPRPPRLPRPRPRPDNHPRP | -0.521
26 | RRIRNRPPRLPRPRPRPFEYPRP | -0.266
27 | RRIRRRPPRLPRPRPRPNTGPRP | -0.121
28 | RRIRGRPPRLPRPRPRPDMTPRP | 3.09
29 | RRIRTRPPRLPRPRPRPRGPPRP | 1.02
30 | RRIRSRPPRLPRPRPRPSKEPRP | -0.0581
31 | RRIRYRPPRLPRPRPRPACNPRP | -0.238
32 | RRIRWRPPRLPRPRPRPCKFPRP | -0.24
33 | RRIRQRPPRLPRPRPRPSYMPRP | -0.301
34 | RRIRTRPPRLPRPRPRPQKVPRP | -0.0169
35 | RRIRCRPPRLPRPRPRPVCCPRP | 0.0914
36 | RRIRERPPRLPRPRPRPWWRPRP | 0.098
37 | RRIRKRPPRLPRPRPRPHECPRP | 0.286
38 | RRIRQRPPRLPRPRPRPEITPRP | 0.0276
39 | RRIRQRPPRLPRPRPRPDYLPRP | -0.212
40 | RRIRMRPPRLPRPRPRPQWDPRP | 0.232
41 | RRIRGRPPRLPRPRPRPNVNPRP | 0.371
42 | RRIRNRPPRLPRPRPRPPDRPRP | 0.00517
43 | RRIRSRPPRLPRPRPRPMVPPRP | -0.0173
44 | RRIRHRPPRLPRPRPRPAVIPRP | -0.0639

Row | Sequence | shrunken log2 fold change
45 | RRIRARPPRLPRPRPRPLKVPRP | -0.0599
46 | RRIRQRPPRLPRPRPRPQNPPRP | -0.0336
47 | RRIRQRPPRLPRPRPRPHCWPRP | -0.0628
48 | RRIRCRPPRLPRPRPRPFAHPRP | -0.355
49 | RRIRKRPPRLPRPRPRPVTAPRP | 0.147
50 | RRIRMRPPRLPRPRPRPQIHPRP | 0.149
51 | RRIRGRPPRLPRPRPRPNWSPRP | 0.131
52 | RRIRCRPPRLPRPRPRPPPRPRP | 1.9
53 | RRIRIRPPRLPRPRPRPYIDPRP | -0.484
54 | RRIRTRPPRLPRPRPRPFVEPRP | -0.284
55 | RRIRDRPPRLPRPRPRPWKWPRP | 0.0155
56 | RRIRHRPPRLPRPRPRPDCLPRP | -0.228
57 | RRIRMRPPRLPRPRPRPGALPRP | 0.954
58 | RRIRYRPPRLPRPRPRPTYEPRP | 4.06
59 | RRIRNRPPRLPRPRPRPRACPRP | -0.0233
60 | RRIRVRPPRLPRPRPRPECEPRP | 0.605
61 | RRIRNRPPRLPRPRPRPPFRPRP | 0.153
62 | RRIRYRPPRLPRPRPRPVDIPRP | -0.00973
63 | RRIRWRPPRLPRPRPRPKTCPRP | 0.174
64 | RRIRERPPRLPRPRPRPNFGPRP | 0.0437
65 | RRIRNRPPRLPRPRPRPAEDPRP | 0.0275
66 | RRIRARPPRLPRPRPRPHKIPRP | -0.0893

Row | Sequence | shrunken log2 fold change
67 | RRIRCRPPRLPRPRPRPYTVPRP | -0.207
68 | RRIRHRPPRLPRPRPRPKTPPRP | 0.155
69 | RRIRIRPPRLPRPRPRPWWFPRP | -0.0772
70 | RRIRTRPPRLPRPRPRPIDDPRP | -0.498
71 | RRIRSRPPRLPRPRPRPWHTPRP | -0.348
72 | RRIRKRPPRLPRPRPRPHMSPRP | 0.0205
73 | RRIRSRPPRLPRPRPRPMVIPRP | -0.0364
74 | RRIRRRPPRLPRPRPRPQEDPRP | 0.108
75 | RRIRMRPPRLPRPRPRPPCKPRP | -0.0348
76 | RRIRLRPPRLPRPRPRPIDTPRP | 0.115
77 | RRIRMRPPRLPRPRPRPMQTPRP | -0.00202
78 | RRIRGRPPRLPRPRPRPTFSPRP | 0.162
79 | RRIRERPPRLPRPRPRPNNEPRP | -0.525
80 | RRIRARPPRLPRPRPRPMTDPRP | -0.414
81 | RRIRVRPPRLPRPRPRPMHCPRP | -0.00923
82 | RRIRFRPPRLPRPRPRPAMAPRP | 0.0902
83 | RRIRFRPPRLPRPRPRPLMRPRP | 0.278
84 | RRIRLRPPRLPRPRPRPIHYPRP | -0.186
85 | RRIRARPPRLPRPRPRPCSAPRP | 0.356
86 | RRIRARPPRLPRPRPRPVSCPRP | 0.473
87 | RRIRVRPPRLPRPRPRPNWDPRP | -0.0621
88 | RRIRKRPPRLPRPRPRPPALPRP | 0.57

Row | Sequence | shrunken log2 fold change
89 | RRIRQRPPRLPRPRPRPPNPPRP | 0.109
90 | RRIRMRPPRLPRPRPRPPFQPRP | 0.202
91 | RRIRPRPPRLPRPRPRPMWDPRP | -0.0234
92 | RRIRIRPPRLPRPRPRPLYVPRP | -1.06
93 | RRIRLRPPRLPRPRPRPNDEPRP | 0.0316
94 | RRIRCRPPRLPRPRPRPIRTPRP | -0.673
95 | RRIRWRPPRLPRPRPRPMQSPRP | 0.185
96 | RRIRNRPPRLPRPRPRPRHRPRP | 0.202
97 | RRIRARPPRLPRPRPRPQRGPRP | 0.468
98 | RRIRSRPPRLPRPRPRPQDGPRP | -0.0336
99 | RRIRVRPPRLPRPRPRPHQNPRP | -0.296
100 | RRIRFRPPRLPRPRPRPLHWPRP | 0.0916
101 | RRIRTRPPRLPRPRPRPKKAPRP | -0.0102
102 | RRIRNRPPRLPRPRPRPYAIPRP | -0.105
103 | RRIRQRPPRLPRPRPRPIFYPRP | -0.418
104 | RRIRVRPPRLPRPRPRPREDPRP | 0.489
105 | RRIRLRPPRLPRPRPRPLSSPRP | -0.0447
106 | RRIRGRPPRLPRPRPRPFETPRP | 2.8
107 | RRIRHRPPRLPRPRPRPWMCPRP | -1.49
108 | RRIRERPPRLPRPRPRPASQPRP | -0.0177
109 | RRIRCRPPRLPRPRPRPSMVPRP | -0.312
